Values of other authors in PMC5830908.
pKd: −log10 of the molar value. Where two headings read alike, the source gives them in different places.

Key:
K-Ras (Homo sapiens) [1] = target: K-Ras (Homo sapiens) (UniProt P01116)
K-Ras (Homo sapiens) [2] = target: K-Ras (Homo sapiens) (UniProt P01116); remark: listed apart in the source

pKd (K-Ras (Homo sapiens) [1]): 7.29
pKd (K-Ras (Homo sapiens) [2]): 6.15
Substance: KRpep-2
